Reference: US20100136573

Test system: Recombinant human GST-TDP-43 (N-terminal GST tag, full length), non-phosphorylated
Sequence (chain, as listed by the source): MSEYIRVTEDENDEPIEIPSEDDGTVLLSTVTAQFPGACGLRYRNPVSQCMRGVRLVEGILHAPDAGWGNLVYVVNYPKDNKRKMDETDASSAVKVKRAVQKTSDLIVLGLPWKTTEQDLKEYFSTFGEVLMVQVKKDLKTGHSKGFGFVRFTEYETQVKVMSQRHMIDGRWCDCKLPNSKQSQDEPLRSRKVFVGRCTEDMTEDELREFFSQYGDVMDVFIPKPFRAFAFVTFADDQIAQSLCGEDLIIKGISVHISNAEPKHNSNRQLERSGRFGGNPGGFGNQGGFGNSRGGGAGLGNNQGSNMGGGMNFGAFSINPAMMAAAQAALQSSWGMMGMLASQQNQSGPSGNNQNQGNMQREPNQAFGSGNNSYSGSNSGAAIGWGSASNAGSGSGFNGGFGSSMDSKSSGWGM

recombinant casein kinase 1 (CK1; New England BioLabs, Inc)
in vitro phosphorylation, read by anti-pTDP-43 Western blot: CK1 effectively phosphorylated GST-TDP-43 at S409/S410 in vitro
